Laboratory results taken from patent publication US11866731.
Several values for one entry are separate records, joined by “and”; a condition that tells them apart may be missing. Identical values can stand only once. Like-named read-outs stand apart in the source and are kept apart here.

Columns and labels:
[1] = biological target: CD19 (B cell surface protein) on B cells (UniProt P15391); test: cell-based or functional assay
[2] = biological target: CD19 (B cell surface protein) on B cells (UniProt P15391); test: cell-based or functional assay; remark: listed apart in the source

Sequence of UniProt P15391 (P15391 20-556 limits assumed): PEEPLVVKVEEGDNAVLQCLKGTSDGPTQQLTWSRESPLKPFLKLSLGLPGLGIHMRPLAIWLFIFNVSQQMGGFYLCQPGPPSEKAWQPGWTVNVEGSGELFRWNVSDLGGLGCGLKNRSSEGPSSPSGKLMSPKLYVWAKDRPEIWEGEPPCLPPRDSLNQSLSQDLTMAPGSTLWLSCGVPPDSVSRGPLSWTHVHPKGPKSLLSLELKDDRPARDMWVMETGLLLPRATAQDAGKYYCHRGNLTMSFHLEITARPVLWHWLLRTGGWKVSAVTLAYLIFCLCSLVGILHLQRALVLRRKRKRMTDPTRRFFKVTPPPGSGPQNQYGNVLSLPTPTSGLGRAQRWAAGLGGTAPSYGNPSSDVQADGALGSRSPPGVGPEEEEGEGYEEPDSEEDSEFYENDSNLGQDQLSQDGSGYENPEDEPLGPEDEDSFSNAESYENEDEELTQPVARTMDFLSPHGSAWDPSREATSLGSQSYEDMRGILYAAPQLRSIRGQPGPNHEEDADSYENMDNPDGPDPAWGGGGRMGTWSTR

Expansion of T cells (fold, after 4 days of co-culture with B cells and J82-NY-ESO-1-Luc cells) [1]: 12 fold and 27 fold | Expansion of T cells (fold, after 96 hours of co-culture with tumor cells and B cells) [1]: 25 fold | Expansion of T cells (fold, after 96 hours of co-culture with tumor cells and B cells) [2]: 23 fold
B1: chimeric antigen receptor targeting B cell surface protein (BCAR), CD19 CAR (protein, part only; not given: transmembrane and signaling domains, part only)
chain, part: DIVLTQSPASLAMSLQLGWRPGWFLDSPDRVIGAHLIHWYQQKPGQPPKLLIYLASNLETGVPARFSGSGSGTDFTLTIDPVEEDDVAIYSCLQSRIFPRTFGGGTKLEIKGGGGSGGGGSGGGGSQIQLVQSGPELKKPGETVKISCKASGYTFTDYSINWVKRAPGKGLKWMGWINTETREPAYAYDFRGRFAFSLETSASTAYLQINNLKYEDTATYFCALDYSYAMDYWGQGTSVTVSS
Killing of J82-NY ESO1 tumor cells by BCAR-TCR T (RTCA Cell Index), with against without B cells [1]: 1000 times
